# US20210163538A1 (published 2021)
# *1 amine or outer side, *2 acyl side, *3 side chain or, on linkers, in order; H or OH if unused. Bridges are numbered along the chain shown (N, C = ends). [ ]: non-standard residue; d: D form. AlexaFluor 647 = AlexaFluor 647 dye coupled as NHS ester to the Lys amine; Tyr(Me) = O-methyltyrosine, COc1ccc(C[C@H](N[*:1])C(=O)[*:2])cc1; Trp(5-F) = N[C@@H](Cc1c[nH]c2ccc(F)cc12)C(=O)O; mXylylene = c1cc(C[*:1])cc(C[*:2])c1; αMeP = C[C@@]1(C(=O)O)CCCN1; Mpa = O=C(O)CCS
# Columns and labels:
# biotinylated PCSK9 [1] = biological target: T1, biotinylated PCSK9 (UniProt Q8NBP7 31-692, limits assumed, biotinylated (site not stated)); assay: method not stated; KD of the labelled probe of the Alexa FRET Standard assay
# T1 construct: also called europium-labeled PCSK9
# T1 sequence (Q8NBP7 31-692 limits assumed): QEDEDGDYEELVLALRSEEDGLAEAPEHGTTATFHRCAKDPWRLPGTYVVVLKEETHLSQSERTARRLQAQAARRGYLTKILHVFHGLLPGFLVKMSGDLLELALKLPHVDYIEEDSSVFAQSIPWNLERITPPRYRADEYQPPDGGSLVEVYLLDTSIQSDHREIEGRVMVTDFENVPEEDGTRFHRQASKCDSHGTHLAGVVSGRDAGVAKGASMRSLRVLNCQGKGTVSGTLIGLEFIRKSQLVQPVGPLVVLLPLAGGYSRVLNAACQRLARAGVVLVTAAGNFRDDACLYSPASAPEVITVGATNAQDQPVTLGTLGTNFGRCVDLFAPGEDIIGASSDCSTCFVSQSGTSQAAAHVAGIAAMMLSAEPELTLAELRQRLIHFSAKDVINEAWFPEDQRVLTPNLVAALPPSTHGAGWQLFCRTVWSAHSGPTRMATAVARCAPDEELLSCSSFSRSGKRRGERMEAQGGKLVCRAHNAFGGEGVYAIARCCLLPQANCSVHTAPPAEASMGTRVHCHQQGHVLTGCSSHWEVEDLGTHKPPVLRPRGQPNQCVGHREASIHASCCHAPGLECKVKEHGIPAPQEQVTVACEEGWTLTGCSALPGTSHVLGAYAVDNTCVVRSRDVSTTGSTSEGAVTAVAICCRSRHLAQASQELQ
# biotinylated PCSK9 [2] = biological target: T1, biotinylated PCSK9; assay: method not stated; KD of the labelled probe of the Alexa FRET Plus assay
binder,measurement,setting,value
"[Mpa]K(AlexaFluor 647)G[Trp(5-F)][Trp(5-F)]DHY[αMeP]C-NH2 (linker N-10 via mXylylene, also called AlexaFluor647 (AF) tagged cyclic peptide; AF cyclic peptide) [Reagent A]",Kd,biotinylated PCSK9 [1],83 nM
"[Mpa]K(AlexaFluor 647)[dA][Trp(5-F)][Trp(5-F)]DH[Tyr(Me)][αMeP]C-NH2 (linker N-10 via mXylylene, also called AlexaFluor647 (AF) tagged cyclic peptide; AF cyclic peptide) [Reagent B]",Kd,biotinylated PCSK9 [2],35 nM
